Our source for the Mean OD values is US20140178854A1.

The experiment concerns the target gp70 env protein of amphotropic MLV (4070A envelope), on purified viral particles (amphotropic murine leukemia virus (4070A envelope)). In words: ELISA on plate-bound MLV, dilution factor 250, Exp122-Ana Plate 2. On the technique in general: An ELISA detects its analyte on a solid surface through an enzyme-linked reagent.

Sequence of gp70 env protein of amphotropic MLV (4070A envelope), on purified viral particles (amphotropic murine leukemia virus (4070A envelope)) (P21995 whole entry): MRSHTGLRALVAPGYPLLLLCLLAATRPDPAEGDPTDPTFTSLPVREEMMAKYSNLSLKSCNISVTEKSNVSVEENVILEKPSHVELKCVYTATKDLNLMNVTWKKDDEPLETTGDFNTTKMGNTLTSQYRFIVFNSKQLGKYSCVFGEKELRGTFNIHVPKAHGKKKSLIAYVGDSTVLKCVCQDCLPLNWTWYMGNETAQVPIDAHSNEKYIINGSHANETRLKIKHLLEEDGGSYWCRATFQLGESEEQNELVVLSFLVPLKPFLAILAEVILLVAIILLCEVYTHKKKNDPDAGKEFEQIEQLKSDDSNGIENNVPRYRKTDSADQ

“83A25 monoclonal antibody (rat IgG2a, anti-gp70)” showed a Mean OD of 1.7 OD.
